We go through 2 proteins from article PMC6202814.

Substrate in data set [1]: O=C(CO)CO
Nature of the data set: purified protein. To be noted: acceptor varied 2-80 mM, donor DHAP 60 mM, 50 mM TEA pH 7.5, 25 °C, apparent.

Substrate in data set [2]: O=C[C@@H](O)CO
Nature of the data set: purified protein. Particulars: donor DHAP 60 mM, 50 mM TEA pH 7.5, 25 °C, apparent.

B1: L-rhamnulose-1-phosphate aldolase (RhaD) (Escherichia coli K-12) (protein)
chain: MQNITQSWFVQGMIKATTDAWLKGWDERNGGNLTLRLDDADIAPYHDNFHQQPRYIPLSQPMPLLANTPFIVTGSGKFFRNVQLDPAANLGIVKVDSDGAGYHILWGLTNEAVPTSELPAHFLSHCERIKATNGKDRVIMHCHATNLIALTYVLENDTAVFTRQLWEGSTECLVVFPDGVGILPWMVPGTDEIGQATAQEMQKHSLVLWPFHGVFGSGPTLDETFGLIDTAEKSAQVLVKVYSMGGMKQTISREELIALGKRFGVTPLASALAL
B1: in “purified protein [1]”, the Michaelis-Menten constant (Km) (in general, the concentration of substrate that gives half-maximal velocity) stood at 23.4 ± 9.69 mM; the Vmax (commonly the top rate of the reaction or transport when substrate is in excess) turned out to be 0.86 µmol/min/mg; the kcat – broadly, the number of substrate molecules converted per active site and unit of time at saturation – came out at 4.1 s⁻¹; the kcat/Km (usually the second-order rate constant that governs catalysis at low substrate concentration) was 180 M⁻¹ s⁻¹. In the data set “purified protein [2]” (acceptor varied 0.2-60 mM), the Michaelis constant (Km) was 40.8 ± 5.8 mM, the Vmax was determined as 4.3 µmol/min/mg, the kcat came to 20.5 s⁻¹ and the kcat/Km was 500 M⁻¹ s⁻¹.

B2: L-fuculose-1-phosphate aldolase (FucA) (Escherichia coli K-12) (protein)
chain: MERNKLARQIIDTCLEMTRLGLNQGTAGNVSVRYQDGMLITPTGIPYEKLTESHIVFIDGNGKHEEGKLPSSEWRFHMAAYQSRPDANAVVHNHAVHCTAVSILNRSIPAIHYMIAAAGGNSIPCAPYATFGTRELSEHVALALKNRKATLLQHHGLIACEVNLEKALWLAHEVEVLAQLYLTTLAITDPVPVLSDEEIAVVLEKFKTYGLRIEE
With B2, in the data set “purified protein [2]” (acceptor varied 0.5-60 mM), the Km is on record as 54.1 ± 3.6 mM, the maximal velocity (Vmax) is 1.5 µmol/min/mg, the kcat stood at 5 s⁻¹ and the kcat/Km was 92 M⁻¹ s⁻¹.
